Test system: MS2 coat protein
Experiment: apparent KD of MS2 coat protein; designed switch direction (-1 OFF switch, 1 ON switch): -1; higher = weaker reporter binding
Method in brief: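 Transcription of designed RNA switches on Illumina chips was done by stalled E. coli RNA polymerase. SNAP-549-labelled MS2 coat protein was then titrated in doubling steps from 0.7 or 1.5 nM to 3 µM, with steps of 0.8–1.5 h at the lowest and 10–20 min at the highest concentration. The per-design median over clusters of curve-fitted normalised fluorescence is reported as apparent KD.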

[1] = input ligand: microRNA oligo, concentration not stated
[2] = Eterna round: R95, input ligand: microRNA oligo, concentration not stated
[3] = Eterna round: R95, input ligand: FMN 200 uM
[4] = Eterna round: R95, input ligand: none

UCUUUAUUUGUGAGGAUAUCGAUAAAAUGGAUUGUCGAGAAGGCACAUGAGGAUCACCCAUGUGUGGAACAGCA [JR_BMEx4_Sub024] (Eterna round: R97, puzzle: Brourd's mod of Exclusion 4)
apparent KD of MS2 coat protein (input ligand: FMN 200 uM): 54.8 nM | apparent KD of MS2 coat protein (input ligand: none): 18.8 nM

ACUAGAUGAGGAUAUACACAUUUUAGUGUUCCUCUAGAUUAACAUGAGGAUCACCCAUGUAGAAGGCAUCAAUU [Exclusion 2 - 11] (Eterna round: R96, puzzle: Exclusion 2)
apparent KD of MS2 coat protein (input ligand: FMN 200 uM): 294 nM | apparent KD of MS2 coat protein [1]: 52.8 nM | apparent KD of MS2 coat protein (input ligand: none): 63 nM

CAGAAACAUGAGGAUCACCCAUGUGAGGAUAUGCGUACGUUGUCCGUAGGCGACGUGCGCAGAAGGCACAAAGG [Mat - Mod of JL D84] (puzzle: Exclusion 1)
apparent KD of MS2 coat protein [2]: 111 nM

AAGGAUAGAGGAUAUACAUAGAUACAGAUUCAUGUAGUCCUACAUGAGGAUCACCCAUGUAGAAGGCUAUCCUA [Fiskers Ex 2 - 12] (puzzle: Exclusion 2)
apparent KD of MS2 coat protein [2]: 15.7 nM

AAUACCCGAGGAUAUCUAAUUCGGCACAUGAGGAUCACCCAUGUGAUCUGACCUAGCCGAGGAGAAGGCGGGUCAG [Errizabe] (puzzle: Exclusion 5)
apparent KD of MS2 coat protein [3]: 25.8 nM | apparent KD of MS2 coat protein [2]: 12.9 nM | apparent KD of MS2 coat protein [4]: 12.1 nM

AAAGAGCGAGGAUAUACAUGAGGAUCACCCAUGUGAAGAUGCAUGGUCUGAACGUCUGGUAGAAGGCGUAUGAA [Rebierce] (puzzle: Exclusion 3)
apparent KD of MS2 coat protein [2]: 119 nM

GGUGGGCUAGGAUAUGCUUUGGGUGGGCAUUCCUUCGAUAAACUUGAGGAUCACCCAAGUAGAAGGAGCUUGCC [salish99_ex2_r4_023] (Eterna round: R97, puzzle: Exclusion 2)
apparent KD of MS2 coat protein (input ligand: FMN 200 uM): 21.8 nM | apparent KD of MS2 coat protein (input ligand: none): 35.4 nM

UUUGUUUAUGUGAGGAUAUACUGUUUGUAUUGAUUGUAGAAGGUACAUGAGGAUCACCCAUGUUUUGUAUUUAU [JR_BME4_Sub035] (puzzle: Brourd's mod of Exclusion 4)
apparent KD of MS2 coat protein [2]: 17.7 nM

GGUACUAACACGAAAGUGUUAGUACAAUAAGCUAGUGGAACAUGAGGAUCACCCAUGUCCUCAUUAGCUCGUCUUAG [Mat - Sensor v3 - Turn-off var 2 - D37] (puzzle: Sensor v3, turn-off variant 2)
apparent KD of MS2 coat protein [3]: 14.7 nM | apparent KD of MS2 coat protein [2]: 37.6 nM | apparent KD of MS2 coat protein [4]: 12.7 nM

UUUAUAAUUUCAAUCUUCGCCAACAAACUUACGCUGGCCACAUGAGGAUCACCCAUGUUUUUUGUUCGUUUUAUUCU [Veorenxere] (puzzle: Sensor v3, turn-off variant 2)
apparent KD of MS2 coat protein [3]: 18.8 nM | apparent KD of MS2 coat protein [2]: 56.4 nM | apparent KD of MS2 coat protein [4]: 21.9 nM

GGAUUACAUGAGGAUCACCCAUGUGAGGAUAUCCCGACAGGUUGCAGAGAACCUCGUAGGAGAAGGCACAGGCG [EX1 B.12] (Eterna round: R97, puzzle: Exclusion 1)
apparent KD of MS2 coat protein (input ligand: FMN 200 uM): 234 nM | apparent KD of MS2 coat protein (input ligand: none): 102 nM

AACCUGAGGCUUUGCUUUAGGUAUACAUGAGGAUCACCCAUGUAGGAUAUGGUAGGCUUUGCUUACCAGAAGGACAUGUUAAUU [JL ENG3 1.10] (Eterna round: R96, puzzle: Exclusion NG 3)
apparent KD of MS2 coat protein (input ligand: FMN 200 uM): 136 nM | apparent KD of MS2 coat protein [1]: 41.7 nM | apparent KD of MS2 coat protein (input ligand: none): 44.2 nM

UAAAACUGAGGAUAUACAUGAGGAUCACCCAUGUCAAUUGACAGCGGCGUGGCAAAAGGUAGAAGGCAGGCGGU [Lerete] (puzzle: Exclusion 3)
apparent KD of MS2 coat protein [3]: 43 nM | apparent KD of MS2 coat protein [2]: 176 nM | apparent KD of MS2 coat protein [4]: 161 nM

AUUUAAUUUAGCGAGAUCACAUGAGGAUCACCCAUGUAUAUAUAGGAUAUCAGCUCGAUUAGAGCUGAGAAGGAUAUAUACCGC [ExNG3/7-A1] (Eterna round: R96, puzzle: Exclusion NG 3)
apparent KD of MS2 coat protein (input ligand: FMN 200 uM): 170 nM | apparent KD of MS2 coat protein [1]: 98.7 nM | apparent KD of MS2 coat protein (input ligand: none): 82 nM

GAGGACUGAGGAUAUGCGUUGGUACCUCGUAGUAAGCAAAGACAUGAGGAUCACCCAUGUAGAAGGCGGAAAAG [Xegeinenxe] (puzzle: Exclusion 2)
apparent KD of MS2 coat protein [3]: 150 nM | apparent KD of MS2 coat protein [2]: 58.6 nM | apparent KD of MS2 coat protein [4]: 52.6 nM

ACCAAGCUAUGCACGUCUGACAUGAGGAUCACCCAUGUAGCCGGUCUCGGAAGGAGACAGGCUCCAGGUGGCUCAGA [Eternabot (Original) Solution 37] (Eterna round: R97, puzzle: Sensor, turn-off variant 1)
apparent KD of MS2 coat protein (input ligand: FMN 200 uM): 683 nM | apparent KD of MS2 coat protein (input ligand: none): 667 nM

AUAAAACAUGAGGAUCACCCAUGUCAGGAUAUACGACUCCAACCAAACUGCUUGGACCGUAGAAGGGACAAGGG [Exclusion 1 (MOD2 Esqu)] (Eterna round: R97, puzzle: Exclusion 1)
apparent KD of MS2 coat protein (input ligand: FMN 200 uM): 140 nM | apparent KD of MS2 coat protein (input ligand: none): 277 nM

UACAAGCUUUUAAGAUCCUACAUGAGGAUCACCCAUGUGCUCGUCUUGUAACGUACUGUGACGAAAGUCACGGUACG [JL TOV1 3.22] (Eterna round: R97, puzzle: Sensor, turn-off variant 1)
apparent KD of MS2 coat protein (input ligand: FMN 200 uM): 206 nM | apparent KD of MS2 coat protein (input ligand: none): 220 nM

CUUUUGUGAGGAUAUCAGUAGUAAAAAAAUAAUAUUACUACUGAGAAGGCACAUGAGGAUCACCCAUGUUCCUC [salish99_ex4_r3_024] (puzzle: Exclusion 4)
apparent KD of MS2 coat protein [2]: 38.4 nM

UUUUAACAUGAGGAUCACCCAUGUGAGGAUAUCGAAAUUUAUAUUAAUAUUAAUUUAACGAGAAGGCACAUUUU [JMF 31] (puzzle: Exclusion 1)
apparent KD of MS2 coat protein [2]: 88.5 nM

CAUCCUAUUGUAGGAUAUCCGCUUAUUAUAUUGGGAGAAGGACAUGAGGAUCACCCAUGUGUGUAAUCAGAUGUGCGUGUUAAC [an other try] (Eterna round: R96, puzzle: Exclusion NG 1)
apparent KD of MS2 coat protein (input ligand: FMN 200 uM): 173 nM | apparent KD of MS2 coat protein [1]: 66.1 nM | apparent KD of MS2 coat protein (input ligand: none): 82.2 nM

UGCAGACGAGGAUAUGAUUAAUAAUACAUGAGGAUCACCCAUGUAAUACUGAUCUAUGGAUCAGAAGGCGUCUGCA [E5/6-A1] (Eterna round: R97, puzzle: Exclusion 5)
apparent KD of MS2 coat protein (input ligand: FMN 200 uM): 11.4 nM | apparent KD of MS2 coat protein (input ligand: none): 12.9 nM

ACAUUCUGAGGAUAUGUGCGCACUGACAUGAGGAUCACCCAUGUCCGAAUGUCCGAGACGACAGAAGGCAGUGAAU [Eternabot (L2) Solution 72] (Eterna round: R97, puzzle: Exclusion 5)
apparent KD of MS2 coat protein (input ligand: FMN 200 uM): 355 nM | apparent KD of MS2 coat protein (input ligand: none): 101 nM

AUAUUGUGAGGAUAUGAACUUAGUAUGGAAAGAUACUAAGUUCAGAAGGCACAUGAGGAUCACCCAUGUUUCUC [Long static hairpin v12] (Eterna round: R97, puzzle: Exclusion 4)
apparent KD of MS2 coat protein (input ligand: FMN 200 uM): 34 nM | apparent KD of MS2 coat protein (input ligand: none): 26.9 nM

CCCUCACAUGAGGAUCACCCAUGUUAGGAUAUGGGAGGUACCUGCGUGAGCGCACCACCCAGAAGGGACCAGGC [Eternabot (L2) Solution 4] (Eterna round: R97, puzzle: Exclusion 1)
apparent KD of MS2 coat protein (input ligand: FMN 200 uM): 130 nM | apparent KD of MS2 coat protein (input ligand: none): 159 nM

AAUUUACAUGAGGAUCACCCAUGUGAGGAUAUGAUACUAUGUACUUCGGUACAUAGUAUCAGAAGGCAUGUGGA [Ex1-3: 91] (puzzle: Exclusion 1)
apparent KD of MS2 coat protein [2]: 115 nM

ACAAGCUCUUUGCAUCUUAGUUUUGUUGCUUCGUAUGUAACAUGAGGAUCACCCAUGUAAGACUGAUGUCGUCUUUU [JR_SV3TOV2_Sub087] (puzzle: Sensor v3, turn-off variant 2)
apparent KD of MS2 coat protein [3]: 43.8 nM | apparent KD of MS2 coat protein [2]: 30 nM | apparent KD of MS2 coat protein [4]: 48.2 nM

GUGCAAUGAGGAUAUACGUAGGUGAAAAUCUGUGUGCUCCUACAUGAGGAUCACCCAUGUAGAAGGCAUGUCAC [LRO-Excl2-16] (puzzle: Exclusion 2)
apparent KD of MS2 coat protein [2]: 16 nM

GAUUAGUGAGGAUAUGGUAAAGAUAAGAUGAUGAAAGAACUCCAGAAGGCACAUGAGGAUCACCCAUGUAGUAG [Mat - Exclusion 4 - Mod of JL - D21] (puzzle: Exclusion 4)
apparent KD of MS2 coat protein [3]: 17.1 nM | apparent KD of MS2 coat protein [2]: 20.4 nM | apparent KD of MS2 coat protein [4]: 20.1 nM

AAGAAACAUGAGGAUCACCCAUGUGAGGAUAUGAUAAAGAAAAGAAAAGAAAGAAGAAUCAGAAGGCACAAAGG [salish99-ex1_r3_031] (puzzle: Exclusion 1)
apparent KD of MS2 coat protein [3]: 129 nM | apparent KD of MS2 coat protein [2]: 51 nM | apparent KD of MS2 coat protein [4]: 54 nM

GCCUCACUUGAGGAUCACCCAAGUCAGGAUAUCUACAAGCCGGCCAUACCGGCUUGCAAGAGAAGGGACUCUAA [Xemamaqu] (Eterna round: R97, puzzle: Exclusion 1)
apparent KD of MS2 coat protein (input ligand: FMN 200 uM): 178 nM | apparent KD of MS2 coat protein (input ligand: none): 38.5 nM

GUACUACAUGAGGAUCACCCAUGUCAGGAUAUGCGAAUUUCAUCAAAAGAUGAAAUUUGCAGAAGGGACAGUAC [Omei Ex1 A1] (Eterna round: R97, puzzle: Exclusion 1)
apparent KD of MS2 coat protein (input ligand: FMN 200 uM): 35.3 nM | apparent KD of MS2 coat protein (input ligand: none): 24.1 nM

AGUCGGCGAGGAUAUACAUGAGGAUCACCCAUGUGGAAUCCUAGACCUGUAGGUCCAUGUAGAAGGCGCUGACA [Exclusion 3 - Was a mod at one point v.2] (puzzle: Exclusion 3)
apparent KD of MS2 coat protein [3]: 32.2 nM | apparent KD of MS2 coat protein [2]: 212 nM | apparent KD of MS2 coat protein [4]: 192 nM

UGUGAGCUAGGAUAUGCUUUGGGCUCGCUUUCCUUCGAUAAACUUGAGGAUCACCCAAGUAGAAGGAGCUUGCA [Mod 31 - Jieux - Exclusion 2] (Eterna round: R97, puzzle: Exclusion 2)
apparent KD of MS2 coat protein (input ligand: FMN 200 uM): 39.6 nM | apparent KD of MS2 coat protein (input ligand: none): 20.4 nM

AGCAUGUAAGGAUAUGCAACACAGCUUUCAAUCGCUGUGCCGCAGAAGGUACAUGAGGAUCACCCAUGUGCUCC [Anesonza] (puzzle: Exclusion 4)
apparent KD of MS2 coat protein [2]: 75.6 nM

AAGUCGAGCGUGAGGAUAUCGUUCGAACGACCGAACGAGAAGGCACAUGAGGAUCACCCAUGUGAUUCAGUUCA [Brourd's EX4 #46] (Eterna round: R97, puzzle: Brourd's mod of Exclusion 4)
apparent KD of MS2 coat protein (input ligand: FMN 200 uM): 39.8 nM | apparent KD of MS2 coat protein (input ligand: none): 17.8 nM

Reference: the supplement of paper PMC9170038
